B1: neutralizing antibody X10 (mouse monoclonal antibody) (antibody, V domains shown)
VH: EVQLQQSGPELVKPGASVKISCKTSGYTFTEYTLHWVKQSHGKSLEWIGGFDPNFGGATYNLKFEDKATLTVDKSSNTAYMELRSLTSEDSAVFYCARGDYGTSYAYFDFWGQGTTLTVSS
VL: DIVLTQSPASLAVSLGQRAAISCRASQSVSTSSHNYVHWYQQRPGQPPKLLIKYASNLECGVPARFSGSGSGTDFTLNIHPVEEEDSAAYYCQHSWEIPYTFGGGTKLEIK
notes: also called nAb X10; cluster 2 representative; source: mouse hybridoma, ascitic fluid, purified (protein A agarose)
B2: neutralizing antibody X17 (mouse monoclonal antibody) (antibody, V domains shown)
VH: QVQLQQSGAELARPGASVKLSCKASGYTFTFYWMQWLKQRPGQGLEWIGAIYPGDGDTRYTQRFKDKATLTADKSSSTAYIQLSSLASEDSAVYYCAGGEYDNYGFDYWGQGTTLTVSS
VL: DIQMTQTTSSLSASLGDRVTISCRASQDISNYLNWYQQKPDGTVKLLIYYTSRLHSGVPSRFSGSGSGTDYSLTISNLEQEDIATYFCQQGTTLPYTFGGGTKLEIK
notes: also called nAb X17; cluster 1 representative; source: mouse hybridoma, ascitic fluid, purified (protein A agarose)

Target: T1, SARS-CoV-2 receptor-binding domain (RBD), recombinant antigen (SARS-CoV-2, UniProt P0DTC2)
T1 construct: source: bought: Wantai BioPharm (microplates precoated with recombinant RBD)
Assay: ELISA
Conditions: both partners purified

Binder | binding result
B1 | binds
B2 | binds
